Laboratory results from US20260103541A1 (UNIVERSIT T Z RICH, published 2026).

B1: DARPin #4 (designed binder)
chain: DLGKKLLDAASVGQDDEVRILMANGADVNASDTYGRTPLHVAAQHGHLEIVDVLLAHGADVNASNAYGSTPLHVAAWTGHLEIVDVLLAYGADVNASNSQGNTPLHAAAATGHLEIVEVLLKHGADVNAQDKFGKTPFDLAIDNGNEDIAEVLQ
notes: also called designed ankyrin repeat domain #4; not shown: N terminal His6 tag; C terminal FLAG tag
B2: DARPin #20 (designed binder)
chain: DLGKKLLEAARAGQDDEVRILMANGADVNAVDYQGRTPLHLAAQYGHLEIVEVLLKTGADVNAQDHHGITPLHLAAFWGHLEIVEVLLKAGADVNAKDDQGNTPLHLAAWRGHLEIVEVLLKHGADVNAQDKFGKTPFDLAIDNGNEDIAEVLQ
notes: also called designed ankyrin repeat domain #20; not shown: N terminal His6 tag; C terminal FLAG tag
B3: DARPin #25 (designed binder)
chain: DLGKKLLEAARAGQDDEVRILMANGADVNATDWQGSTPLHLAAQHGHLEIVEVLLKTGADVNAEDQNGITPLHLAAYWGHLEIVEVLLKAGADVNAVDRQGNTPLHLAAVWGHLEIVEVLLKHGADVNAQDKFGKTPFDLAIDNGNEDIAEVLQ
notes: also called designed ankyrin repeat domain #25; not shown: N terminal His6 tag; C terminal FLAG tag
B4: DARPin #10 (designed binder)
chain: DLGKKLLEAARAGQDDEVRILMANGADVNAADDQGRTPLHLAAMHGHLEIVEVLLKTGADVNANDWFGITPLHLAAWWGHLEIVEVLLKAGADVNAVDHSGDTPLHLAAHLGHLEIVEVLLKHGADVNAQDKFGKTPFDLAIDNGNEDIAEVLQ
notes: also called designed ankyrin repeat domain #10; not shown: N terminal His6 tag; C terminal FLAG tag
B5: DARPin #23 (designed binder)
chain: DLGKKLLEAARYGQDDEVRILMANGADVNAEDQHGHTPLHLAAFSGHLEIVEVLLKTGADVNANDINGVTPLHLAANVGHLEIVEVLLKHGADVNAQDKFGKTPFDLAAYLGNEDIAEVLQ
notes: also called designed ankyrin repeat domain #23; not shown: N terminal His6 tag; C terminal FLAG tag
B6: DARPin #15 (designed binder)
chain: DLGKKLLEAARAGQDDEVRILMANGADVNAMDMWGITPLHLAAWAGHLEIVEVLLKTGADVNAFDQHGNTPLHLAAYRGHLEIVEVLLKTGADVNAHDNWGTTPLHLTAHNGHLEIVEVLLKAGADVNAQDKFGKTPFDLAIDNGNEDIAEVLQ
notes: also called designed ankyrin repeat domain #15; not shown: N terminal His6 tag; C terminal FLAG tag
B7: DARPin #21 (designed binder)
chain: DLGKKLLEAAELGQLDEVRILMANGADVNAMDQHGITPLHLAAWHGHLEIVEVLLKTGADVNAKDQDGSTPLHLAAYLGHLEIVEVLLKTGADVNAFDKFGNTPLHLAAHRGHLEIVEVLLKHGADVNAQDKFGKTPFDLAIDNGNEDIAEVLQ
notes: also called designed ankyrin repeat domain #21; not shown: N terminal His6 tag; C terminal FLAG tag
B8: DARPin #3 (designed binder)
chain: DLGKKLLEAARAGQDDEVRILMANGADVNAQDMTGKTPLHLAAREGHLEIVEVLLKTGADVNAKDLWGVTPLHLAAFSGHLEIVEVLLKTGADVNAWDWEGKTPLHLAAVKGHPEIVEVLLKHGADVNAQDKFGKTPFDLAIDNGNEDIAEVLQ
notes: also called designed ankyrin repeat domain #3; not shown: N terminal His6 tag; C terminal FLAG tag
B9: DARPin #17 (designed binder)
chain: DLGKKLLEAARAGQDDEVRILMANGADVNAADNYGITPLHLAAYRGHLEIVEVLLKTGADVNAHDNVGNTPLHLAAAKGHLEIVEVLLKAGADVNADDVQGVTPLHLAASQGHLEIVEVLLKHGADVNAQDKFGKTPFDLAIDNGNEDIAEVLQ
notes: also called designed ankyrin repeat domain #17; not shown: N terminal His6 tag; C terminal FLAG tag
B10: DARPin #13 (designed binder)
chain: DLGKKLLEAARAGQDDEVRILMANGADVNATDQHGRTPLHLAAHTGHLEIVEVLLKTGADVNAQDHQGITPLHLAAFKGHLEIVEVLLKTGADVNAQDNWGYTPLHLAAARGHLEIVEVLLKAGADVNAQDKFGKTPFDLAIDNGNEDIAEVLQ
notes: also called designed ankyrin repeat domain #13; not shown: N terminal His6 tag; C terminal FLAG tag
B11: DARPin #5 (designed binder)
chain: DLGKKLLEAARAGQDDEVRILMANGADVNAEDHVGRTPLHLAAAHGHLEIVEVLLKTGADVNARDRHGITPLHLAAWSGHLEIVEVLLKTGADVNASDKQGNTPLHLAAYRGHLEIVEVLLEAGADVNAQDKFGKTPFDLAIDNGNEDIAEVLQ
notes: also called designed ankyrin repeat domain #5; not shown: N terminal His6 tag; C terminal FLAG tag
B12: DARPin #11 (designed binder)
chain: DLVKKLLEAARAGQDDEVRILMANGADVNANDHFGITPLHLTAWWGHLEIVEVLLKAGADVNAVDHWGTTPLHLAAHQGHLEIVEVLLKHGADVNAQDKFGKTAFDISIDNGNEDIAEVLQ
notes: also called designed ankyrin repeat domain #11; not shown: N terminal His6 tag; C terminal FLAG tag
B13: DARPin #22 (designed binder)
chain: DLGKKLLEAARAGQDDEVRILMANGADVNASDWWGITPLHLAAYWGHLEIVEVLLKTGADVNAQDNQGITPLHLAATLGHLEIVEVLLKHGADVNAQDKFGKTPFDLAIDNGNEDIAEVLQ
notes: also called designed ankyrin repeat domain #22; not shown: N terminal His6 tag; C terminal FLAG tag
B14: DARPin #26 (designed binder)
chain: DLGKKLLEAARAGQDDEVRILMANGADVNAIDWWGITPLHLAALFGHLEIVEVLLKTGADVNAEDRLGFTPLHLAATTGHLEIVEVLLKAGADVNAQDKFGKTPFDLAIDNGNEDIAEVLQ
notes: also called designed ankyrin repeat domain #26; not shown: N terminal His6 tag; C terminal FLAG tag
B15: DARPin #8 (designed binder)
chain: DLGKKLLEAARAGQDDEVRILMANGADVNAADEYGITPLHLAAFFGHLEIVEVLLKTGADVNADDAWGSTPLHLAAYKGHLEIVEVLLKHGADVNAQDKFGKTPFDLAIDNGNEDIAEVLQ
notes: also called designed ankyrin repeat domain #8; not shown: N terminal His6 tag; C terminal FLAG tag
B16: DARPin #24 (designed binder)
chain: DLGKKLLEAARAGQDDEVRILMANGADVNAIDVHGITPLHLAAYWGHLEIVEVLLKAGADVNAEDESGHTPLHLAAHWGHLEIVEVLLKHGADVNAQDKFGKTPFDLAIDNGNEDIAEVLQ
notes: also called designed ankyrin repeat domain #24; not shown: N terminal His6 tag; C terminal FLAG tag
B17: DARPin #16 (designed binder)
chain: DLGKKLLEAARAGQDDEVRILMANGADVNAKDRYGITPLHLAAYWGHLEIVEVLLKAGSDVNALDYHGSTPLHLAAWFGHLEIVEVLLKHGADVNAQDKFGKTPFDLAIDNGNEDIAEVLQ
notes: also called designed ankyrin repeat domain #16; not shown: N terminal His6 tag; C terminal FLAG tag
B18: DARPin #12 (designed binder)
chain: DLGKKLLEAARAGQDDEVRILMANGADVNAQDQRGRTPLHLAAAWGHLEIVEVLLKTGADVNAADDMGHTPLHLAAAFGHLEIVEVLLKHGADVNAQDKFGKTPFDLAIDNGNEDIAEVLQ
notes: also called designed ankyrin repeat domain #12; not shown: N terminal His6 tag; C terminal FLAG tag
B19: DARPin #1 (designed binder)
chain: DLGKKLLDAARAGQDDEVRILMANGADVNAMDVWGVTPLHLAAWHRHLEIVEVLLKTGADVNANDDSGFTPLHLAAHWGHLEIVEVLLKHGADVNAQDKFGKTPFDLAIDNGNEDIAEVLQ
notes: also called designed ankyrin repeat domain #1; not shown: N terminal His6 tag; C terminal FLAG tag

The binders below were run against T1, human FAP (fibroblast activation protein) on HT1080hFAP cells (human, UniProt Q12884 1-760) (assay: flow cytometry cell-based binding assay, HT1080hFAP against FAP-negative HT1080 cells).
T1 construct: also called seprase
T1 sequence: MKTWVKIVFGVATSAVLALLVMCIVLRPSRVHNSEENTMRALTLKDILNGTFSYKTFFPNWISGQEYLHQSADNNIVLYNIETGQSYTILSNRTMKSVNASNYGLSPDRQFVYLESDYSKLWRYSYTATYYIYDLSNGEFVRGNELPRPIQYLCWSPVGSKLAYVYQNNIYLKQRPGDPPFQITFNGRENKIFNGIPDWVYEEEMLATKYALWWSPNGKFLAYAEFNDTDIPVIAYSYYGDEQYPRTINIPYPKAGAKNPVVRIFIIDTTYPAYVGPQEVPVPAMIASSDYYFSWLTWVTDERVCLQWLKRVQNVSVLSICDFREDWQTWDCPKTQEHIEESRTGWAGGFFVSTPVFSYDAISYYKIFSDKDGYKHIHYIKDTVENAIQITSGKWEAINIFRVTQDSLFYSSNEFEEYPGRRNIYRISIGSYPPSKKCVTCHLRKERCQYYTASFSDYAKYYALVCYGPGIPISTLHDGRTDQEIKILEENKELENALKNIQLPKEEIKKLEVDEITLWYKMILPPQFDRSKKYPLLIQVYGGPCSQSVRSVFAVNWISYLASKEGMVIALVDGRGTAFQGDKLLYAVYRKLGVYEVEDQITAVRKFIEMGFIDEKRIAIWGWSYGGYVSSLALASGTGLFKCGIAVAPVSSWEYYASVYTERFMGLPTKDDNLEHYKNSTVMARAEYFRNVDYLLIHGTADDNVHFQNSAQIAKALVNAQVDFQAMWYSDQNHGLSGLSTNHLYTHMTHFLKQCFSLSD

Binder | binding result
B1 | binds
B2 | binds
B3 | binds
B4 | binds
B5 | binds
B6 | binds
B7 | binds
B8 | binds
B9 | binds
B10 | binds
B11 | binds
B12 | binds
B13 | binds
B14 | binds
B15 | binds
B16 | binds
B17 | binds
B18 | binds
B19 | binds
